{
  "source": "patent US20230144436A1",
  "about": "(DYNE THERAPEUTICS, published 2023)",
  "binders": {"B1": {"name": "anti-TfR antibody shown in Table 7, unconjugated (Example 18) (antibody, V domains shown)", "VH": "QVQLVQSGAEVKKPGESLKISCKGSGYSFTSYWIGWVRQMPGKGLEWMGIIYPGDSDTRYSPSFQGQVTISADKSISTAYLQWSSLKASDTAMYYCARFPYDSSGYYSFDYWGQGTLVTVSS", "VL": "not shown", "notes": "also called anti-TfR alone; unconjugated anti-TfR"}, "B2": {"name": "anti-TfR hIgG1 (with L234A/L235A mutations in HC constant region), Table 7 clone (antibody, V domains shown)", "VH": "B1 VH", "VL": "not shown", "notes": "Tied by the description 'anti-TfR IgG heavy chain (with human IgG1 constant region mutant L234A/L235A)'"}, "B3": {"name": "anti-TfR FAB, Table 7 clone (Fab, V domains shown)", "VH": "B1 VH", "VL": "not shown"}, "B4": {"name": "anti-TfR antibody shown in Table 7 conjugated to a DMPK-targeting oligonucleotide (control DMPK-ASO) (antibody, V domains shown)", "VH": "B1 VH", "VL": "not shown", "notes": "Antibody-oligonucleotide conjugate; For the uptake assay the antibody was conjugated to several different DMPK-targeting oligonucleotides and labeled with Cypher5e; also called oligonucleotide-conjugated anti-TfR; anti-TfR Fab conjugates"}, "B5": {"name": "Anti-TfR antibody 15G11 (antibody, V domains shown)", "VH": "QVQLQQPGAELVKPGASVKLSCKASGYTFTSYWMHWVKQRPGQGLEWIGEINPTNGRTNYIEKFKSKATLTVDKSSSTAYMQLSSLTSEDSAVYYCARGTRAYHYWGQGTSVTVSS", "VL": "DIQMTQSPASLSVSVGETVTITCRASDNLYSNLAWYQQKQGKSPQLLVYDATNLADGVPSRFSGSGSGTQYSLKINSLQSEDFGTYYCQHFWGTPLTFGAGTKLELK", "notes": "Known control antibody; It was captured as an IgG on the Carterra chip; also called ctrl-15G11; 15G11 (control)"}, "B6": {"name": "15G11 (antibody, V domains shown)", "VH": "B5 VH", "VL": "B5 VL", "notes": "Known anti-TfR1 antibody used as control; also called control antibody 15G11; ctrl-15G11"}, "B7": {"name": "10-H2 (antibody, V domains shown)", "VH": "EVQLVESGGDLVKPGGSLKLSCAASGFTFSDYGMHWVRQGPEKGLEWVAYINSGSSTIYYADTVKGRFTISRDNAKNTLFLQMTSLRSEDTAMYYCARPGDYDNYAMDYWGQGTSVTVSS", "VL": "DIVMTQSHKFLSTSVGDRVSITCKASQDVSVAVAWYQQKPGQSPKLLIYWAYTRHTGVPDRFTGSGSGTEYTLTISSVQAEDLALYYCQQHYNTPPWTFGGGTKLEIK", "notes": "Tested as a mouse monoclonal IgG; also called 10-H02"}},
  "key": {"[1]": {"target": "T1, human transferrin receptor 1 (human, UniProt P02786 89-760, limits assumed)", "T1 construct": "also called hTfR1; human TfR1", "test": "ELISA"}, "[2]": {"target": "T2, cynomolgus monkey transferrin receptor 1 (cynomolgus monkey, UniProt Q5RDH6 89-760 (Pongo abelii entry), limits assumed)", "T2 construct": "also called cTfR1; cyTfR1", "T2 chain": "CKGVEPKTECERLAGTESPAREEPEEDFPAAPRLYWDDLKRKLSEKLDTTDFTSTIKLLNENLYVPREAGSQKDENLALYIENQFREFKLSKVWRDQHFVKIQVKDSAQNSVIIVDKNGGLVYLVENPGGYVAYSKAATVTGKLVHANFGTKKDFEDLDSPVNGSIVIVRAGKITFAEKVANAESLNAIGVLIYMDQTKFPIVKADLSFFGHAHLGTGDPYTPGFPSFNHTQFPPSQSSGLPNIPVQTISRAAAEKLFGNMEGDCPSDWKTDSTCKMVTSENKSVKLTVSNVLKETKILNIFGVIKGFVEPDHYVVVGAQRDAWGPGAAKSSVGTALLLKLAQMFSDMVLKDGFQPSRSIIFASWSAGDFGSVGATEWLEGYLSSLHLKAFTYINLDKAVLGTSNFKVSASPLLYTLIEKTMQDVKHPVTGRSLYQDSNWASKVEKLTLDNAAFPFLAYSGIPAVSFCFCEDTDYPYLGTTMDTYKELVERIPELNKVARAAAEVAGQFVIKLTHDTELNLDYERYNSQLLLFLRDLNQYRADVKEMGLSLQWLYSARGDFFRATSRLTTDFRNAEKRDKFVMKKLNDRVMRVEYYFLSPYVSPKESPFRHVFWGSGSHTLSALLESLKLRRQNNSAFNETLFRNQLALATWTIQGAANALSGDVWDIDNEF", "test": "ELISA"}, "[3]": {"target": "T3, human transferrin receptor 2 (human, UniProt Q9UP52 105-801, limits assumed)", "T3 construct": "also called human TfR2; hTfR2", "T3 sequence (looked up)": "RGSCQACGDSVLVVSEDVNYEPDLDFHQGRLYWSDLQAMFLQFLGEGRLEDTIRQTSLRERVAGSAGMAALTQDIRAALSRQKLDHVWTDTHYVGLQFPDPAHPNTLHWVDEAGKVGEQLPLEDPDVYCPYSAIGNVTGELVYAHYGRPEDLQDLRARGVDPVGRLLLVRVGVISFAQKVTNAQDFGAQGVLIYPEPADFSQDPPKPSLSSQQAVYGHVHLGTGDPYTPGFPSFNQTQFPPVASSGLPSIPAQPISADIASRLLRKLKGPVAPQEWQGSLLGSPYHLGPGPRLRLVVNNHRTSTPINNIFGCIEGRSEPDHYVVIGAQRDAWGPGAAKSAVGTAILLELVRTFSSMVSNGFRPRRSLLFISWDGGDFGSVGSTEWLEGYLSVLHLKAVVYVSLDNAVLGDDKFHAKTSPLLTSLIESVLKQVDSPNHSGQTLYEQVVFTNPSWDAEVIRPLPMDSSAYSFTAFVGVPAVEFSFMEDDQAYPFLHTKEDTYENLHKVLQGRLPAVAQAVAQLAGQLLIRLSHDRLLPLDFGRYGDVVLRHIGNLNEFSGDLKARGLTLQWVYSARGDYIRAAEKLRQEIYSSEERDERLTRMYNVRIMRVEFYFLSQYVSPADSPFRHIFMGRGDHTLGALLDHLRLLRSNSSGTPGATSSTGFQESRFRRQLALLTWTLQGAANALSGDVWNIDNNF", "test": "ELISA"}, "[4]": {"target": "T4, human transferrin receptor 1 (human, UniProt P02786 89-760, limits assumed)", "T4 construct": "also called hTfR1; huTfR1", "test": "ELISA on human TfR1", "method": "(§1) The binding activity of selected formats were tested against human TfR1, cyno TfR1, and human TfR2 in an ELISA assay."}, "[5]": {"target": "T5, cynomolgus monkey transferrin receptor 1 (cynomolgus monkey (Macaca fascicularis), UniProt Q5RDH6 89-760 (Pongo abelii entry), limits assumed)", "T5 construct": "also called cyTfR1; Cyno TfR1", "T5 chain": "T2 chain", "test": "average KD, antibody alone; method not given"}, "[6]": {"target": "T4, human transferrin receptor 1", "test": "average KD, antibody alone; method not given"}, "[7]": {"target": "T5, cynomolgus monkey transferrin receptor 1", "test": "ELISA on cyno TfR1", "method": "as §1"}, "[8]": {"target": "T4, human transferrin receptor 1", "test": "Carterra LSA SPR array, IgG captured on anti-IgG lawn, hTfR1 as analyte, 25 C, 1:1 Langmuir fit", "method": "Selected anti-TfR1 antibodies were tested for their binding affinity to human TfR1 for measurement of Ka (association rate constant), Kd (dissociation rate constant), and KD (affinity). […] The binding experiment was performed on Carterra LSA at 25 C. An anti-mouse IgG and anti-human IgG antibody “lawn” was prepared on a HC30M chip by amine coupling. 59 IgGs (58 mouse mAbs and 1 human mAb) were captured on the chip. Dilution series of hTfR1, cyTfR1, and hTfR2 were injected to the chip for binding (starting from 1000 nM, 1:3 dilution, 8 concentrations).\nBinding data were referenced by subtracting the responses from a buffer analyte injection and globally fitting to a 1:1 Langmuir binding model for estimate of Ka (association rate constant), Kd (dissociation rate constant), and KD (affinity) using the Carterra™ Kinetics software. 5-6 concentrations were used for curve fitting."}},
  "data": [
    {"binder": "B1", "values": [
      {"measurement": "EC50", "setting": "[1]", "value": 26.6, "unit": "nM"},
      {"measurement": "EC50", "setting": "[2]", "value": 33.6, "unit": "nM"}
    ]},
    {"binder": "B2", "values": [
      {"measurement": "binding result", "setting": "[3]", "value": "no binding"}
    ]},
    {"binder": "B3", "values": [
      {"measurement": "binding result", "setting": "[3]", "value": "no binding"}
    ]},
    {"binder": "B4", "values": [
      {"measurement": "EC50", "setting": "[1]", "value": 8.2, "unit": "nM"},
      {"measurement": "EC50", "setting": "[2]", "value": 5.3, "unit": "nM"}
    ]},
    {"binder": "B5", "values": [
      {"measurement": "EC50", "setting": "[4]", "value": 0.589, "unit": "nM"},
      {"measurement": "Kd", "setting": "[5]", "value": 1, "unit": "nM"},
      {"measurement": "Kd", "setting": "[6]", "value": 0.8, "unit": "nM"},
      {"measurement": "EC50", "setting": "[7]", "value": 1.08, "unit": "nM"},
      {"measurement": "Kd", "setting": "[8]", "value": 0.283, "unit": "nM"}
    ]},
    {"binder": "B6", "values": [
      {"measurement": "binding result", "setting": "[3]", "value": "no binding"}
    ]},
    {"binder": "B7", "values": [
      {"measurement": "Kd", "setting": "[5]", "value": 12.4, "unit": "nM"},
      {"measurement": "Kd", "setting": "[6]", "value": 2.72, "unit": "nM"},
      {"measurement": "Kd", "setting": "[8]", "value": 2.72, "unit": "nM"},
      {"measurement": "kon", "setting": "[8]", "value": 126000, "unit": "M⁻¹ s⁻¹"}
    ]}
  ]
}
